Data as given in the Immune Epitope Database (IEDB).
Values belong to the sequence of their own block, whether it stands above or below them.

Assays:
[1] = target: HLA-A*24:03; test: IEDB peptide-MHC binding, purified MHC/direct/fluorescence; filed as Kd, often an IC50 or EC50 that approximates it; ≥ and ≤ were set here for values at or beyond the usual limits of such assays
[2] = target: HLA-A*30:01; test: as above
[3] = target: HLA-A*23:01; test: as above
[4] = target: HLA-C*15:02; test: as above
[5] = target: HLA-A*23:01; test: IEDB peptide-MHC binding, purified MHC/competitive/fluorescence; filed as Kd, often an IC50 or EC50 that approximates it; ≥ and ≤ were set here for values at or beyond the usual limits of such assays; conditions: source organism: Bacillus cereus ATCC 14579
[6] = target: HLA-B*58:01; test: IEDB peptide-MHC binding, purified MHC/direct/fluorescence; filed as Kd, often an IC50 or EC50 that approximates it; ≥ and ≤ were set here for values at or beyond the usual limits of such assays
[7] = target: HLA-B*15:01; test: as above
[8] = target: HLA-A*03:01; test: as above
[9] = target: HLA-A*11:01; test: as above
[10] = target: HLA-A*24:02; test: as above
[11] = target: HLA-A*01:01; test: as above
[12] = target: HLA-B*40:01; test: as above
[13] = target: HLA-B*27:05; test: as above
[14] = target: HLA-B*07:02; test: as above
[15] = target: HLA-B*44:02; test: as above
[16] = target: HLA-A*31:01; test: as above
[17] = target: HLA-A*02:01; test: as above
[18] = target: HLA-C*05:01; test: as above; conditions: source organism: Giardia intestinalis
[19] = target: HLA-B*46:01; test: as above
[20] = target: HLA-B*08:01; test: as above
[21] = target: HLA-A*26:01; test: as above
[22] = target: HLA-A*69:01; test: as above
[23] = target: HLA-B*18:01; test: as above
[24] = target: HLA-A*68:02; test: as above; conditions: source organism: Zaire ebolavirus
[25] = target: HLA-B*57:01; test: as above
[26] = target: HLA-A*29:02; test: as above
[27] = target: HLA-A*02:12; test: as above; conditions: source organism: Zaire ebolavirus
[28] = target: HLA-A*02:11; test: as above; conditions: source organism: Zaire ebolavirus
[29] = target: HLA-B*51:01; test: IEDB peptide-MHC binding, purified MHC/competitive/fluorescence; filed as Kd, often an IC50 or EC50 that approximates it; ≥ and ≤ were set here for values at or beyond the usual limits of such assays; conditions: source organism: Zaire ebolavirus
[30] = target: HLA-B*15:17; test: as above; conditions: source organism: Zaire ebolavirus
[31] = target: HLA-B*27:03; test: as above; conditions: source organism: Zaire ebolavirus
[32] = target: HLA-A*26:01; test: as above; conditions: source organism: Zaire ebolavirus
[33] = target: HLA-B*39:01; test: as above; conditions: source organism: Zaire ebolavirus
[34] = target: HLA-B*35:01; test: as above; conditions: source organism: Influenza A virus H3N2
[35] = target: HLA-B*39:01; test: IEDB peptide-MHC binding, purified MHC/direct/fluorescence; filed as Kd, often an IC50 or EC50 that approximates it; ≥ and ≤ were set here for values at or beyond the usual limits of such assays; conditions: source organism: Zaire ebolavirus
[36] = target: HLA-A*24:02; test: IEDB peptide-MHC binding, purified MHC/competitive/fluorescence; ≥ and ≤ were set here for values at or beyond the usual limits of such assays; conditions: source organism: Zaire ebolavirus
[37] = target: HLA-A*02:01; test: as above; conditions: source organism: Zaire ebolavirus
[38] = source organism: Orthohantavirus hantanense
[39] = source organism: Giardia lamblia ATCC 50803
[40] = source organism: Corynebacterium glutamicum
[41] = source organism: Sudan ebolavirus - Maleo (1979)
[42] = source organism: Zaire ebolavirus
[43] = source organism: Aggregatibacter actinomycetemcomitans
[44] = source organism: Dengue virus 1 Singapore/S275/1990
[45] = source organism: Yersinia pestis
[46] = source organism: Yersinia pestis Antiqua

Sequence: NYYAPRIQF
Kd [1, 38]: 7.4 nM | Kd ([2]; source organism: Hantaan virus Q32): ≥ 20000 nM | Kd [3, 38]: 5.9 nM

Sequence: TVCGGIMFL
Kd ([4]; source organism: human gammaherpesvirus 4): 2470 nM

Sequence: LYSLWTKRK
Kd [5]: 245 nM

Sequence: KSRRFTVRF
Kd ([6]; source organism: Mycobacterium tuberculosis): 422 nM | Kd ([4]; source organism: Mycobacterium tuberculosis variant bovis BCG str. Pasteur 1173P2): ≥ 20000 nM

Sequence: VTTPARTAF
Kd ([6]; source organism: Mycobacterium avium 104): 1100 nM | Kd ([4]; source organism: Mycobacterium tuberculosis C): ≥ 20000 nM

Sequence: WSDLNTTDF
Kd [7, 39]: ≥ 20 µM | Kd [8, 39]: ≥ 20 µM | Kd [9, 39]: ≥ 20 µM | Kd [10, 39]: ≥ 20000 nM | Kd [6, 39]: ≥ 20000 nM | Kd [11, 39]: 0.156 µM | Kd [12, 39]: ≥ 20 µM | Kd [13, 39]: ≥ 20 µM | Kd [14, 39]: ≥ 20 µM | Kd [15, 39]: ≥ 20 µM | Kd [16, 39]: ≥ 20 µM | Kd [17, 39]: ≥ 20 µM | Kd [18]: ≤ 1 nM | Kd [19, 39]: ≥ 20 µM

Kd [7, 40]: ≥ 20 µM | Kd [8, 40]: ≥ 20 µM | Kd [9, 40]: 0.021 µM | Kd [6, 40]: 444 nM | Kd [11, 40]: 3.13 µM | Kd [12, 40]: ≥ 20 µM | Kd [13, 40]: ≥ 20 µM | Kd [14, 40]: 6.67 µM | Kd [20, 40]: ≥ 20 µM | Kd [1, 40]: 4.44 nM | Kd [2, 40]: 31.7 nM | Kd [17, 40]: 0.115 µM | Kd [21, 40]: ≥ 20 µM
Sequence: ATQPVHWFL

Sequence: MHYKLDEVL
Kd [7, 41]: ≥ 20 µM | Kd [22, 41]: ≥ 20 µM | Kd [8, 41]: ≥ 20 µM | Kd [23, 41]: ≥ 20 µM | Kd [9, 41]: ≥ 20 µM | Kd [6, 41]: ≥ 20000 nM | Kd [24]: ≥ 20 µM | Kd [11, 41]: ≥ 20 µM | Kd [12, 41]: ≥ 20 µM | Kd [25, 41]: ≥ 20 µM | Kd [13, 41]: ≥ 20 µM | Kd [14, 41]: ≥ 20 µM | Kd [15, 41]: ≥ 20 µM | Kd [20, 41]: ≥ 20 µM | Kd [1, 42]: ≥ 20000 nM | Kd [26, 41]: ≥ 20 µM | Kd [16, 41]: ≥ 20 µM | Kd [17, 41]: ≥ 20 µM | Kd [19, 41]: ≥ 20 µM | Kd [27]: ≥ 20 µM | Kd [28]: ≥ 20 µM | Kd [3, 42]: ≥ 20000 nM | Kd [29]: ≥ 20 µM | Kd [30]: ≥ 20 µM | Kd [31]: ≥ 20 µM | Kd [32]: ≥ 20 µM | Kd [33]: 4.1 nM

Kd [7, 43]: 6.28 µM | Kd [22, 43]: ≥ 20 µM | Kd [8, 43]: ≥ 20 µM | Kd [9, 43]: ≥ 20 µM | Kd [6, 43]: 663 nM | Kd [11, 43]: 0.111 µM | Kd [12, 43]: ≥ 20 µM | Kd [13, 43]: ≥ 20 µM | Kd [14, 43]: ≥ 20 µM | Kd [20, 43]: ≥ 20 µM | Kd [1, 43]: ≥ 20000 nM | Kd [2, 43]: ≥ 10000 nM | Kd [16, 43]: ≥ 20 µM | Kd [17, 43]: ≥ 20 µM | Kd [21, 43]: ≥ 20 µM
Sequence: RSEVELCIY

Kd ([4]; source organism: Rattus norvegicus): 239 nM
Sequence: ILMEHIHKL

Sequence: GFMNEDHWF
Kd [10, 44]: 90 nM | Kd [3, 44]: 46 nM

Sequence: RYQRMTGGY
Kd [7, 45]: 1.35 µM | Kd [22, 46]: ≥ 20 µM | Kd [8, 46]: ≥ 20 µM | Kd [6, 46]: ≥ 20000 nM | Kd [11, 46]: ≥ 20 µM | Kd [12, 46]: ≥ 20 µM | Kd [13, 45]: 2.93 µM | Kd [14, 46]: ≥ 20 µM | Kd [20, 46]: ≥ 20 µM | Kd [1, 45]: 6.21 nM | Kd [2, 45]: 2340 nM | Kd [16, 45]: 0.388 µM | Kd [17, 46]: ≥ 20 µM | Kd [21, 46]: ≥ 20 µM

Sequence: LTITYSSSM
Kd ([21]; source organism: Influenza A virus (A/swine/Miyagi/5/2003(H1N2))): 0.0618 µM | Kd [34]: 1180 nM

Sequence: GHMMVIFRL
Kd [7, 42]: ≥ 20 µM | Kd [22, 42]: ≥ 20 µM | Kd [8, 42]: ≥ 20 µM | Kd [23, 42]: ≥ 20 µM | Kd [6, 42]: ≥ 20000 nM | Kd [24]: ≥ 20 µM | Kd [11, 42]: ≥ 20 µM | Kd [12, 42]: ≥ 20 µM | Kd [25, 42]: ≥ 20 µM | Kd [13, 42]: ≥ 20 µM | Kd [14, 42]: ≥ 20 µM | Kd [15, 42]: ≥ 20 µM | Kd [1, 42]: ≥ 20000 nM | Kd [26, 42]: ≥ 20 µM | Kd [16, 42]: ≥ 20 µM | Kd [17, 42]: ≥ 20 µM | Kd [19, 42]: ≥ 20 µM | Kd [27]: ≥ 20 µM | Kd [35]: 86.7 nM | Kd [28]: ≥ 20 µM | Kd [29]: ≥ 20 µM | Kd [30]: ≥ 20 µM | Kd [31]: ≥ 20 µM | Kd [32]: ≥ 20 µM | IC50 [36]: 190 nM | IC50 [37]: 205 nM
